# Reference: article PMC12819147 (2025)
# Assays:
# [1] = target: Schizosaccharomyces pombe Ccr4–Not complex with an FITC label on the Not9 subunit (S. pombe) (UniProt P87112); test: fluorescence polarisation; fluorescence anisotropy; Puf3 constructs titrated into 25 nM Ccr4–Not with FITC on Not9; 20 mM HEPES pH 8, 100 mM NaCl, 0.5 mM TCEP; quadratic fit; apparent KD
# [2] = target: recombinant full-length H. sapiens CCR4–NOT deadenylase complex (human)
# [3] = target: recombinant full-length H. sapiens CCR4–NOT deadenylase complex (human); remark: listed apart in the source
# [4] = target: Schizosaccharomyces pombe Ccr4–Not complex with an FITC label on the Not9 subunit (S. pombe, UniProt P87112 1-2100; P87240 1-306; O13870 1-640; Q92368 1-283; O74874 1-690; O74856 …, fluorescein (FITC label) from a CoA–fluorescein conjugate on the YbbR tag at the N terminus); test: FP; apparent
# [5] = target: Schizosaccharomyces pombe Ccr4–Not complex, full-length, unlabeled (Not1, Not2, Not3, Not4, Not9, Ccr4, Caf1) (S. pombe) (UniProt P87112)
# PUM1^Δ587, sequence (Q14671 588-1186, stated change not applied): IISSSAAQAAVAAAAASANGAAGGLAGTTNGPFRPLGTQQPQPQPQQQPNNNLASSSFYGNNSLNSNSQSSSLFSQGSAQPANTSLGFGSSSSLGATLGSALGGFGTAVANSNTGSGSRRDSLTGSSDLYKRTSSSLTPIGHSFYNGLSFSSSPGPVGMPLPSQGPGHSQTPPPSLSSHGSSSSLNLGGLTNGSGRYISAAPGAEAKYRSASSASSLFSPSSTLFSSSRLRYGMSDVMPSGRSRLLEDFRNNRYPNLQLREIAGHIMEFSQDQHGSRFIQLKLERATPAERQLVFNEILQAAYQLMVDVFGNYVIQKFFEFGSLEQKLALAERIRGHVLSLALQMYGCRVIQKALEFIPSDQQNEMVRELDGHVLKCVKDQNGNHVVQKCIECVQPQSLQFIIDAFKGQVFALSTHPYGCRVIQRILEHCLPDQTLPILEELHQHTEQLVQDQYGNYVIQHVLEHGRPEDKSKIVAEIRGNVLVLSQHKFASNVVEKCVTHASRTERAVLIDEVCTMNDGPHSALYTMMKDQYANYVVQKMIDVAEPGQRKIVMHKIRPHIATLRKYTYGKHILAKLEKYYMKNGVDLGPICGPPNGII
Molecule,Kd [1] [nM],Kd [4] [nM],further results
Puf3 variant with residues 53–68 and 217–232 both replaced with a GSN linker (from UniProt O94462 1-52; O94462 69-216; O94462 233-732) (natural protein),10000,,
PUM1^Δ587 (from UniProt Q14671 588-1186) (domain or fragment),,,fold decrease in stimulation of deadenylation by human CCR4–NOT (in vitro targeted deadenylation assay) [2]: 4 fold; stimulation of removal of the poly(A) tail by human CCR4–NOT [3]: 10 fold
Puf3 variant with residues 53–68 replaced with a GSN linker (natural protein) MFTAVNSNPNASESISGNSAFNFPSAPVSSLDTNNYGQRRPSLLSGTSPTSSSNKQASLESPVSYSNPIPSLTWLSLDGDSPDSLVSTPTAPSANHHGNPFPNGKQSIKAMPSLVNLQEDSVISKFPNSLEVPFRKRSESTSSSLSGLHSDLRPLKTELYGQLNSECGARFPQTLKSPLTPIGGDSARTVSASTARTSDKFFPRHTRAHSDFWIPATSKPSRHASHSSIGDLTTITQSSISSGSGSFKPSWDGSFDSSLMAHQSYGTSPAFANGNSPTLKNDSSFFGSASVRPTVSPIGTSFRQSLPDISAFGIPKTETNPSEVVAPGTIPISVLPTSNFSAATPANPSLINQNGQEFLQQSRVLYLFHANKQRHFELSDILGNVVLFSTDQHGSRFIQQKLATATEEEREAVFQEIASTSCLQLMMDIFGNYVVQKYFEFGNEKQKQILLSQIKGHVFSLSLQMYGCRVVQKAIEYISPEHQVQLIQELDGHVLDCVCDQNGNHVIQKAIECIDTGHLQFILRALRPQIHVLSAHPYGCRVIQRAIEHCHSERKLIIEELLPHILKLTQDQYGNYVVQHILRTGSESDKKYIFDLMIDHLLFLSCHKFASNVVERCISYISDVDRRRILNKIISEKAENCSILMLMMKDKYANYVIQKLLDASPEEERDLLISYIYPHISVLKKFTYGKHLIMSVERFRQKSISAVPKLASKECK,,290,"fold decrease in stimulation of Ccr4–Not-mediated deadenylation (in vitro targeted deadenylation assay, t1/2) [5]: 2 fold"
Puf3 variant with residues 217–232 replaced with a GSN linker (natural protein) MFTAVNSNPNASESISGNSAFNFPSAPVSSLDTNNYGQRRPSLLSGTSPTSSFFNSSMISSNYTFPHGSNKQASLESPVSYSNPIPSLTWLSLDGDSPDSLVSTPTAPSANHHGNPFPNGKQSIKAMPSLVNLQEDSVISKFPNSLEVPFRKRSESTSSSLSGLHSDLRPLKTELYGQLNSECGARFPQTLKSPLTPIGGDSARTVSASTARTSDKTSKPSRHASHSSIGDLTTITQSSISSGSGSFKPSWDGSFDSSLMAHQSYGTSPAFANGNSPTLKNDSSFFGSASVRPTVSPIGTSFRQSLPDISAFGIPKTETNPSEVVAPGTIPISVLPTSNFSAATPANPSLINQNGQEFLQQSRVLYLFHANKQRHFELSDILGNVVLFSTDQHGSRFIQQKLATATEEEREAVFQEIASTSCLQLMMDIFGNYVVQKYFEFGNEKQKQILLSQIKGHVFSLSLQMYGCRVVQKAIEYISPEHQVQLIQELDGHVLDCVCDQNGNHVIQKAIECIDTGHLQFILRALRPQIHVLSAHPYGCRVIQRAIEHCHSERKLIIEELLPHILKLTQDQYGNYVVQHILRTGSESDKKYIFDLMIDHLLFLSCHKFASNVVERCISYISDVDRRRILNKIISEKAENCSILMLMMKDKYANYVIQKLLDASPEEERDLLISYIYPHISVLKKFTYGKHLIMSVERFRQKSISAVPKLASKECK,,420,"stimulation of Ccr4–Not-mediated deadenylation (in vitro targeted deadenylation assay, t1/2) [5]: 2 fold"
"Puf3 residues 109–258, GST–lipoyl tag fusion with no PUM domain (domain or fragment) SANHHGNPFPNGKQSIKAMPSLVNLQEDSVISKFPNSLEVPFRKRSESTSSSLSGLHSDLRPLKTELYGQLNSECGARFPQTLKSPLTPIGGDSARTVSASTARTSDKFFPRHTRAHSDFWIPATSKPSRHASHSSIGDLTTITQSSISS",800,,

# Second part, led by results:
Kd [1] [nM],Kd [4] [nM],Molecule,further results
7000,,"Puf3 residues 158–258, GST–lipoyl tag fusion with no PUM domain (domain or fragment) SSSLSGLHSDLRPLKTELYGQLNSECGARFPQTLKSPLTPIGGDSARTVSASTARTSDKFFPRHTRAHSDFWIPATSKPSRHASHSSIGDLTTITQSSISS",
,~10000,1-158 (protein) MFTAVNSNPNASESISGNSAFNFPSAPVSSLDTNNYGQRRPSLLSGTSPTSSFFNSSMISSNYTFPHGSNKQASLESPVSYSNPIPSLTWLSLDGDSPDSLVSTPTAPSANHHGNPFPNGKQSIKAMPSLVNLQEDSVISKFPNSLEVPFRKRSESTSQSRVLYLFHANKQRHFELSDILGNVVLFSTDQHGSRFIQQKLATATEEEREAVFQEIASTSCLQLMMDIFGNYVVQKYFEFGNEKQKQILLSQIKGHVFSLSLQMYGCRVVQKAIEYISPEHQVQLIQELDGHVLDCVCDQNGNHVIQKAIECIDTGHLQFILRALRPQIHVLSAHPYGCRVIQRAIEHCHSERKLIIEELLPHILKLTQDQYGNYVVQHILRTGSESDKKYIFDLMIDHLLFLSCHKFASNVVERCISYISDVDRRRILNKIISEKAENCSILMLMMKDKYANYVIQKLLDASPEEERDLLISYIYPHISVLKKFTYGKHLIMSVERFRQKSISAVPKLASKECK,
100,160,MBP-tagged full-length S. pombe Puf3 (natural protein) MFTAVNSNPNASESISGNSAFNFPSAPVSSLDTNNYGQRRPSLLSGTSPTSSFFNSSMISSNYTFPHGSNKQASLESPVSYSNPIPSLTWLSLDGDSPDSLVSTPTAPSANHHGNPFPNGKQSIKAMPSLVNLQEDSVISKFPNSLEVPFRKRSESTSSSLSGLHSDLRPLKTELYGQLNSECGARFPQTLKSPLTPIGGDSARTVSASTARTSDKFFPRHTRAHSDFWIPATSKPSRHASHSSIGDLTTITQSSISSGSGSFKPSWDGSFDSSLMAHQSYGTSPAFANGNSPTLKNDSSFFGSASVRPTVSPIGTSFRQSLPDISAFGIPKTETNPSEVVAPGTIPISVLPTSNFSAATPANPSLINQNGQEFLQQSRVLYLFHANKQRHFELSDILGNVVLFSTDQHGSRFIQQKLATATEEEREAVFQEIASTSCLQLMMDIFGNYVVQKYFEFGNEKQKQILLSQIKGHVFSLSLQMYGCRVVQKAIEYISPEHQVQLIQELDGHVLDCVCDQNGNHVIQKAIECIDTGHLQFILRALRPQIHVLSAHPYGCRVIQRAIEHCHSERKLIIEELLPHILKLTQDQYGNYVVQHILRTGSESDKKYIFDLMIDHLLFLSCHKFASNVVERCISYISDVDRRRILNKIISEKAENCSILMLMMKDKYANYVIQKLLDASPEEERDLLISYIYPHISVLKKFTYGKHLIMSVERFRQKSISAVPKLASKECK,
> 50000,> 40000,Puf3 construct spanning residues 109–208 (anisotropy) (domain or fragment) SANHHGNPFPNGKQSIKAMPSLVNLQEDSVISKFPNSLEVPFRKRSESTSSSLSGLHSDLRPLKTELYGQLNSECGARFPQTLKSPLTPIGGDSARTVSA,
